Experimental data taken from US20230391882A1 (NUMAB THERAPEUTICS, published 2023).

Assays:
[1] = biological target: mesothelin (MSLN) on target cells (H226, MeT-5A) (UniProt Q13421 37-598, limits assumed); test: cell-based or functional assay
[2] = biological target: soluble mesothelin (sMSLN) (UniProt Q13421 296-580, limits assumed); test: cell-based or functional assay

Row | Binder | T-cell driven cytotoxicity assay: EC50 for killing high MSLN expressing target cells against EC50 for killing MeT-5A cells [1] [fold] | increase of EC50 for killing high MSLN expressing target cells in the presence of 50 ng/ml sMSLN [2] [fold] | increase of EC50 for killing high MSLN expressing target cells in the presence of 500 ng/ml sMSLN [2] [fold] | decrease of potency of T-cell driven target cell killing in the presence of 500 ng/ml soluble MSLN [2] [fold]
1 | PRO2566 (MATCH4) (other) chain 1: AFELTQSPSSLSASVGDRVTITCQASESINSRLAWYQQKPGQPPKLLIYDASDLTSGVPSRFSGSGSGTDFTLTISSLQPEDFATYYCQGYGGSSTTTFGTGTKLTVLGGGGGSGGGGSGGGGSGGGGSEVQLVESGGGLVQPGGSLRLSCAASGFSLSSYAMNWVRQAPGKGLEWIGHINAGDIAYYATWAKGRFTISRDNSKNTVYLQMNSLRAEDTAVYFCARGAGGFSTGPFKLWGQGTLVTVSSGGGGSGGGGSEVQLVESGGGLVQPGGSLRLSCAASGFSLSSYDMSWVRQAPGKGLAWIGASYASGPTYYASWAKGRFTISRDNSKNTVYLQMNSLRAEDTATYFCARGGWTGTSHSNIWGQGTLVTVSSGGGSGGGSGGGSGQSQLVESGGGLVQPGGSLRLSCAVSGFSLSSYAMGWVRQAPGKCLEYIGYISKIGTTYYASWAKGRFTISKDNSKNTVYLQMNSLRAEDTAVYFCARGSSSGGYLDDGFDPWGQGTLVTVSS chain 2: ALQMTQSPSSLSARVGDRVTIKCQASQSISNYLAWYQQKPGKPPKFLIYDASDLASGVPSRFSGSGSGRDFTLTISSLQPEDFATYYCQQVYDSNNVENVFGCGTKVTVLGGGGGSGGGGSGGGGSGGGGSQSQLVESGGGLVQPGGSLRLSCAVSGFSLSSYAMGWVRQAPGKCLEYIGYISKIGTTYYASWAKGRFTISKDNSKNTVYLQMNSLRAEDTAVYFCARGSSSGGYLDDGFDPWGQGTLVTVSSGGGGSGGGGSALQMTQSPSSLSARVGDRVTIKCQASQSISNYLAWYQQKPGKPPKFLIYDASDLASGVPSRFSGSGSGRDFTLTISSLQPEDFATYYCQQVYDSNNVENVFGCGTKVTVLGGGSGGSGGSGGSGDIQMTQSPSSLSASVGDRVTITCQSSQSVFSNNYLAWFQQKPGQSPKRLIYSASTLASGVPSRFSGSGSGTDFTLTISSLQPEDFATYYCLGSYACSSADCYVFGTGTKVTVLG | ≥ 25 | ≤ 6 | ≤ 40 | –
2 | PRO2567 (MATCH4) (other) chain 1: AFELTQSPSSLSASVGDRVTITCQASESINSRLAWYQQKPGQPPKLLIYDASDLTSGVPSRFSGSGSGTDFTLTISSLQPEDFATYYCQGYGGSSTTTFGTGTKLTVLGGGGGSGGGGSGGGGSGGGGSEVQLVESGGGLVQPGGSLRLSCAASGFSLSSYAMNWVRQAPGKGLEWIGHINAGDIAYYATWAKGRFTISRDNSKNTVYLQMNSLRAEDTAVYFCARGAGGFSTGPFKLWGQGTLVTVSSGGGGSGGGGSEVQLVESGGGLVQPGGSLRLSCAASGFSLSSYDMSWVRQAPGKGLAWIGASYASGPTYYASWAKGRFTISRDNSKNTVYLQMNSLRAEDTATYFCARGGWTGTSHSNIWGQGTLVTVSSGGGSGGGSGGGSGQSQLVESGGGLVQPGGSLRLSCAVSGFSLSSYAMGWVRQAPGKCLEYIGYISKIGTTYYASWAKGRFTISKDNSKNTVYLQMNSLRAEDTAVYFCARGSSSGGYLDDGFDPWGQGTLVTVSS chain 2: ALQMTQSPSSLSARVGDRVTIKCQASQSISNYLAWYQQKPGKPPKFLIYDASDLASGVPSRFSGSGSGRDFTLTISSLQPEDFATYYCQQVYDSNNVENVFGCGTKVTVLGGGGGSGGGGSGGGGSGGGGSQSQLVESGGGLVQPGGSLRLSCAVSGFSLSSYAMGWVRQAPGKCLEYIGYISKIGTTYYASWAKGRFTISKDNSKNTVYLQMNSLRAEDTAVYFCARGSSSGGYLDDGFDPWGQGTLVTVSSGGGGSGGGGSALQMTQSPSSLSARVGDRVTIKCQASQSISNYLAWYQQKPGKPPKFLIYDASDLASGVPSRFSGSGSGRDFTLTISSLQPEDFATYYCQQVYDSNNVENVFGCGTKVTVLGGGSGGSDIQMTQSPSSLSASVGDRVTITCQSSQSVFSNNYLAWFQQKPGQSPKRLIYSASTLASGVPSRFSGSGSGTDFTLTISSLQPEDFATYYCLGSYACSSADCYVFGTGTKVTVLG | ≥ 25 | ≤ 6 | ≤ 40 | –
3 | PRO2562 (MATCH4) (other) chain 1: ALQMTQSPSSLSARVGDRVTIKCQASQSISNYLAWYQQKPGKPPKFLIYDASDLASGVPSRFSGSGSGRDFTLTISSLQPEDFATYYCQQVYDSNNVENVFGCGTKVTVLGGGGGSGGGGSGGGGSGGGGSQSQLVESGGGLVQPGGSLRLSCAVSGFSLSSYAMGWVRQAPGKCLEYIGYISKIGTTYYASWAKGRFTISKDNSKNTVYLQMNSLRAEDTAVYFCARGSSSGGYLDDGFDPWGQGTLVTVSSGGGGSGGGGSEVQLVESGGGLVQPGGSLRLSCAASGFSLSSYDMSWVRQAPGKGLAWIGASYASGPTYYASWAKGRFTISRDNSKNTVYLQMCSLRAEDTATYFCARGGWTGTSHSNIWGQGTLVTVSSGGGSGGGSGGGSGEVQLVESGGGLVQPGGSLRLSCAASGFSLSSYAMNWVRQAPGKCLEWIGHINAGDIAYYATWAKGRFTISRDNSKNTVYLQMNSLRAEDTAVYFCARGAGGFSTGPFKLWGQGTLVTVSS chain 2: ALQMTQSPSSLSARVGDRVTIKCQASQSISNYLAWYQQKPGKPPKFLIYDASDLASGVPSRFSGSGSGRDFTLTISSLQPEDFATYYCQQVYDSNNVENVFGCGTKVTVLGGGGGSGGGGSGGGGSGGGGSQSQLVESGGGLVQPGGSLRLSCAVSGFSLSSYAMGWVRQAPGKCLEYIGYISKIGTTYYASWAKGRFTISKDNSKNTVYLQMNSLRAEDTAVYFCARGSSSGGYLDDGFDPWGQGTLVTVSSGGGGSGGGGSAFELTQSPSSLSASVGDRVTITCQASESINSRLAWYQQKPGQPPKLLIYDASDLTSGVPSRFSGSGSGTDFTLTISCLQPEDFATYYCQGYGGSSTTTFGCGTKLTVLGGGSGGSGGSGGSGDIQMTQSPSSLSASVGDRVTITCQSSQSVFSNNYLAWFQQKPGQSPKRLIYSASTLASGVPSRFSGSGSGTDFTLTISSLQPEDFATYYCLGSYACSSADCYVFGTGTKVTVLG | ≥ 25 | ≤ 6 | ≤ 40 | –
4 | PRO2100 (biMSLNlow affinity x CD3 x hSA) (other) chain 1: DIQMTQSPSSLSASVGDRVTITCQASQNIYSNLAWYQQKPGKAPKLLIYDASDLASGVPSRFSGSGSGTDFTLTISSLQPEDFATYYCQQVRSSSDIDNPFGTGTKVTVLGGGGGSGGGGSGGGGSGGGGSQVQLVESGGGLVQPGGSLRLSCAASGFSLSSYAMGWVRQAPGKGLEWIGYISTIANTYYASWAKGRFTISRDNSKNTVYLQMNSLRAEDTAVYYCAREIRSGWVDYGFSIWGQGTLVTVSSGGGGSGGGGSEVQLVESGGGLVQPGGSLRLSCAASGFSLSSYDMSWVRQAPGKGLAWIGASYASGPTYYASWAKGRFTISRDNSKNTVYLQMNSLRAEDTATYFCARGGWTGTSHSNIWGQGTLVTVSSGGGSGGGSEVQLVESGGGLVQPGGSLRLSCAASGFSFSSSYWICWVRQAPGKCLEWVGCVFTGDGTTYYASWAKGRFTISRDNSKNTVYLQMNSLRAEDTATYFCARPVSVYYYGMDLWGQGTLVTVSS chain 2: DIQMTQSPSSLSASVGDRVTITCQASQNIYSNLAWYQQKPGKAPKLLIYDASDLASGVPSRFSGSGSGTDFTLTISSLQPEDFATYYCQQVRSSSDIDNPFGTGTKVTVLGGGGGSGGGGSGGGGSGGGGSQVQLVESGGGLVQPGGSLRLSCAASGFSLSSYAMGWVRQAPGKGLEWIGYISTIANTYYASWAKGRFTISRDNSKNTVYLQMNSLRAEDTAVYYCAREIRSGWVDYGFSIWGQGTLVTVSSGGGGSGGGGSDVVMTQSPSSLSASVGDRVTITCQASQIISSRSAWYQQKPGQPPKLLIYQASKLASGVPSRFSGSGSGTDFTLTISSLQPEDFATYYCQCTYIDSNFGAFGCGTKLTVLGGGSGGSDIQMTQSPSSLSASVGDRVTITCQSSQSVFSNNYLAWFQQKPGQSPKRLIYSASTLASGVPSRFSGSGSGTDFTLTISSLQPEDFATYYCLGSYACSSADCYVFGTGTKVTVLG | – | – | – | 17
